This data set has as its target T1, Fc-CTL (mannose receptor CTLD4-7 fused to human IgG1 Fc) (Mus musculus, UniProt Q61830 Q61830:655-1212).
T1 chain: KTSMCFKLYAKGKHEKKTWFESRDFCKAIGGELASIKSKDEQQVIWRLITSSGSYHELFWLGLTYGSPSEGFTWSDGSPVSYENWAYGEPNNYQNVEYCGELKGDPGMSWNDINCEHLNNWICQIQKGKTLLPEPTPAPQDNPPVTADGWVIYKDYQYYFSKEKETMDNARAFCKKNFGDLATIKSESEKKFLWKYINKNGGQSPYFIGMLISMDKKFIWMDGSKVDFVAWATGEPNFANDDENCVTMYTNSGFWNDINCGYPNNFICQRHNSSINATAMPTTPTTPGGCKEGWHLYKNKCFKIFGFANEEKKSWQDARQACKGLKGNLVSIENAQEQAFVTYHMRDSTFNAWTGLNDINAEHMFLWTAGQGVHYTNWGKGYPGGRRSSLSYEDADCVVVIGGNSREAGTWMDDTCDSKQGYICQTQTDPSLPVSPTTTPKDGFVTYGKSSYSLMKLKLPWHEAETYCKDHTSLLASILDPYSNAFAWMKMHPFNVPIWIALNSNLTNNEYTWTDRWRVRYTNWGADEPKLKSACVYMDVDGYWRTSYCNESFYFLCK
Briefly: filter; 500 nM protein, PBS, 1 mM MgCl2, 1 mM CaCl2, BSA, 37 C; more than 2-fold higher than Fc-FN. As to conditions: tags: human IgG1 Fc fusion; expressed in HEK293T from pIgplus-CTLD4-7; protein G purified; chain copies: 2; label: 5'-32P or 5'-ATTO 647N. How it is done: Representative DNA sequences of each motif family (FIG. 14A-B), namely CTL #5, CTL #9, CTL #6 and CTL #16, and unique sequences CTL #1, #2, #3, #14 and #18 (FIG. 39) were chosen for further analysis. Therefore, their binding ability to Fc-CTL, Fc-FN and the IgG1 Fc protein tag was monitored by radioactive filter retention assay (FIG. 15). DNA was end labeled with ³²P and mixed with the corresponding proteins at a concentration of 500 nM. The mixtures were incubated in selection buffer for 30 minutes at 37° C. and applied on a nitrocellulose membrane. Finally, the amount of bound DNA was detected by autoradiography.

B1: CTL #5 (ssDNA)
DNA: GCTGTGTGACTCCTGCAATGCAATCTAGCTGACAATGGGGGGGAAGAATGTGGGTGGGTGGCAGCTGTATCTTGTCTCC
For the molecule B1, the binding result is recorded as “binds”.

Values taken from patent publication US20210147847, “APTAMERS FOR TARGETED ACTIVATON OF T CELL-MEDIATED IMMUNITY” (Rheinische Friedrich-Wilhelms-Universitat Bonn, published 2021).
